US20170342155A1 (Amgen, published 2017)

Assays:
Test in all cases: flow cytometry on transfected 293T cells, PE secondary antibody, geo mean
[1] = target: T1, human CCR7 variant A207T (20100171270) (human, UniProt P32248 25-378)
T1 sequence: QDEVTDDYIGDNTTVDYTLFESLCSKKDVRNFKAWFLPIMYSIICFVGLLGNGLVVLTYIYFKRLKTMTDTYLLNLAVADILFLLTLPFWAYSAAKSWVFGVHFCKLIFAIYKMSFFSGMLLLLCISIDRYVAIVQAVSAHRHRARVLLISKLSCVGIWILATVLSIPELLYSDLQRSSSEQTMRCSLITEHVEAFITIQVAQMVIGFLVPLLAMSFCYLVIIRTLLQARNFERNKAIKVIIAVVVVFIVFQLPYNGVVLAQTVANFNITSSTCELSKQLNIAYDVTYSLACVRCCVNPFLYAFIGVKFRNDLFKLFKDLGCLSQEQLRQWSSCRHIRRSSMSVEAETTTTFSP

[2] = target: T2, human CCR7 variant M208L (20100171271) (human, UniProt P32248 25-378)
T2 sequence: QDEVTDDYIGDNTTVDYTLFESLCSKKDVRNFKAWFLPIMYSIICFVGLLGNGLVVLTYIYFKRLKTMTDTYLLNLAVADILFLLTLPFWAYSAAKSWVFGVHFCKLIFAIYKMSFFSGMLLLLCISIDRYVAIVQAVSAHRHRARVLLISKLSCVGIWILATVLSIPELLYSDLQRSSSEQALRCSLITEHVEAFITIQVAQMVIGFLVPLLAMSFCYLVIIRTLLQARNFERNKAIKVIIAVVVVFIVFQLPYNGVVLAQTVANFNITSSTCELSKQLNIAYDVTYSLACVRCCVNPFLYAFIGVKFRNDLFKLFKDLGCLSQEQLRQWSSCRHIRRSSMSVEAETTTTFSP

[3] = target: T3, murine CCR7 K201R/N202S/G204S/T207A/L208M construct 20110094673 (mouse, UniProt P47774 25-378)
T3 construct: Murine CCR7 with five human ECL2 residues; also called KNGTL; KNGTL construct
T3 chain: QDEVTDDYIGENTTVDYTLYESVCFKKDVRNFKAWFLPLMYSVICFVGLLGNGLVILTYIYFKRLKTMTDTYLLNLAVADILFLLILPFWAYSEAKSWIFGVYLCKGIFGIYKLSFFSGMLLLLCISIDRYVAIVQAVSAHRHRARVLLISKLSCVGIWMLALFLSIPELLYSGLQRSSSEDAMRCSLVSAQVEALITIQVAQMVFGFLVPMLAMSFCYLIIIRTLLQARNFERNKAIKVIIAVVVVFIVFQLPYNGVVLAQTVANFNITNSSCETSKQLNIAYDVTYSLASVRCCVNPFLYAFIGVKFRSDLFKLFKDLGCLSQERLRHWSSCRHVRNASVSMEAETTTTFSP

[4] = target: T4, human CCR7 variant A118E (20100130760) (human, UniProt P32248 25-378)
T4 sequence: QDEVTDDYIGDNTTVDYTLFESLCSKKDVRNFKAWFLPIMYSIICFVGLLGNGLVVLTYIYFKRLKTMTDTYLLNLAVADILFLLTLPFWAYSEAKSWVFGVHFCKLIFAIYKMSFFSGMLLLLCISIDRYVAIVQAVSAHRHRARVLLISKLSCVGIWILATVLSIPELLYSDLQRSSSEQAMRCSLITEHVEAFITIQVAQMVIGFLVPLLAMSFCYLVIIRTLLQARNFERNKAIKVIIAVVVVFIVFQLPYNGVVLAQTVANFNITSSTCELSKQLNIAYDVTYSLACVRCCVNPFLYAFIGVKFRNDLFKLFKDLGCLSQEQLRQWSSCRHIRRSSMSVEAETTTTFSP

[5] = target: T5, human CCR7 variant S49F (20100122627) (human, UniProt P32248 25-378)
T5 sequence: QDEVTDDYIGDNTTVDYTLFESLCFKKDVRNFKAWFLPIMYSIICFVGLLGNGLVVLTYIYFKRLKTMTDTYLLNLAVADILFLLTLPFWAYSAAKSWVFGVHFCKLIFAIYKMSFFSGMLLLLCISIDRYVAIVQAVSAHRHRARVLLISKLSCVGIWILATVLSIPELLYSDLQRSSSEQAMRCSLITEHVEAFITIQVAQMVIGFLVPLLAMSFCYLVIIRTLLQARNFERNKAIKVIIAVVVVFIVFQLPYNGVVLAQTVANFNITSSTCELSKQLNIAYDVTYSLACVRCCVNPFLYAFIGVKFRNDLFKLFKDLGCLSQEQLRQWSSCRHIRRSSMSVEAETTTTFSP

[6] = target: T6, human CCR7 variant L300T (20110018204) (human, UniProt P32248 25-378)
T6 sequence: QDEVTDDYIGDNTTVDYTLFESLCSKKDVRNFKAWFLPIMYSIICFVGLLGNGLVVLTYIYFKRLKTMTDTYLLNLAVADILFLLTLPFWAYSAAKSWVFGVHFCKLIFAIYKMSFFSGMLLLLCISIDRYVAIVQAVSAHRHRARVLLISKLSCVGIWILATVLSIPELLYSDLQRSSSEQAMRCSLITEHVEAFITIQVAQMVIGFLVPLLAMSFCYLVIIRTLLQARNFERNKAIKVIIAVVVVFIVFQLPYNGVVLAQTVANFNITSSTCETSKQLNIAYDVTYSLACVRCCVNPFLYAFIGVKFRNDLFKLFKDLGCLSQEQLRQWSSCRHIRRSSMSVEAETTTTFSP

[7] = target: T7, human CCR7 variant H127Y (20100135009) (human, UniProt P32248 25-378)
T7 sequence: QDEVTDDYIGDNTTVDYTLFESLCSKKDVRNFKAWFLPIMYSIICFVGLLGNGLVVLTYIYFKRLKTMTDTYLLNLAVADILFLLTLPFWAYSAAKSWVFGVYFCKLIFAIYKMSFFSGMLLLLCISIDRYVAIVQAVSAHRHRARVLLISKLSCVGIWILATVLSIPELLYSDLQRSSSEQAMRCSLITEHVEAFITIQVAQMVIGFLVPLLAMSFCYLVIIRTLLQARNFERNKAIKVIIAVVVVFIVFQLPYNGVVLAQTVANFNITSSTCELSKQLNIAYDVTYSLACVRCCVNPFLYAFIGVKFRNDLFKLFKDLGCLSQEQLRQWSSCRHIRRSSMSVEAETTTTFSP

Measured: binding result

B1: antibody 6B4.1 (antibody, V domains shown)
VH: QVQLVESGGGVVQPGRSLRLSCAASGFTFSSYGMHWVRQAPGKGLEWVAVIWYDGSKKYYADSVKGRFTISRDNSKNTLYLQMNRLRAEDTAVYYCARDGGIAVFLQDNWFDPWGQGTLVTVSS
VL: SYELTQPPSVSVSPGQRARITCSGDKLGDKYASWYQQKPGQSPLLVIYQDSKRPSGIPERFSGSNSGNTATLTISGTQAMDEADYYCQAWGSSTVIFGGGTKLTVLG
notes: Human antibody from XenoMouse hybridoma; Light = 2 and heavy = 42 is inferred from the order of the listing (light chains first)
binds: [1] | [2] | [3] | [4] | [5] | [6] | [7]

B2: antibody 6B5.1 (antibody, human IgG2, lambda, V domains shown)
VH: QVQLVESGGGVVQPGRSLRLSCAASGFTFRSYGMHWVRQAPGKGLEWVAVIWYDGSKKYYADSVKGRFTISRDNSKNTLYLQMNRLRAEDTAVYYCARDGGIAVFLEDNWFDPWGQGTLVTVSS
VL: SYELTQPPSVSVSPGQRASITCSGDKLGDKYASWYQQKPGQSPLLVIYQDGKRPSGIPERFSGSNSGNTATLTISGTQAMDEADYYCQAWGSSTVIFGGGTKLTVLG
notes: Human antibody from XenoMouse hybridoma; Light = 18 and heavy = 50 is inferred from the order of the listing
binds: [1] | [2] | [3] | [4] | [5] | [6] | [7]
